# Source: patent US20060142171A1, “Novel alkaline protease” (priority 2003, published 2006)
# T1: N-succinyl-Ala-Ala-Phe-7-amino-4-methyl coumarin
# T1 chain: AAF
# T2: N-succinyl-Ala-Ala-Pro-Leu-p-nitroanilide
# T2 chain: AAPL
# T3: N-succinyl-Ala-Ala-Pro-Phe-p-nitroanilide
# T3 chain: AAPF
# T4: N-succinyl-Leu-Leu-Val-Tyr-7-amino-4-methyl coumarin
# T4 chain: LLVY
# T5: N-succinyl-Leu-Tyr-7-amino-4-methyl coumarin
# T5 chain: LY
# T6: N-succinyl-Phe-Leu-Phe thiobenzyl ester
# T6 chain: FLF
# B1: AL protease (alkaline protease from Nesterenkonia sp. nov. strain AL, DSM 15380) (protein)
# chain: QNPADSPHIGKVFFSTNQGDFVCSANIVASANQSTVATAGHCLHDGNGGQFARNFVFAPAYDYGESEHGVWAAEELVTSAEWANRGDFEHDYAFAVLETKGGTTVQQQVGTASPIAFNQPRGQYYSAYGYPAAAPFNGQELHSCHGTATNDPMGSSTQGIPCNMTGGSSGGPWFLGQGTGGAQNSVNSYGYTFLPDVMFGPYFGSGAQQNYNYAST
# B2: Subtilisin Carlsberg: bacterial protease, type VIII; Sigma; one of the first commercial alkaline proteases (protein, UniProt P00780 106-379, looked up)
# Subtilisin Carlsberg: AQTVPYGIPLIKADKVQAQGFKGANVKVAVLDTGIQASHPDLNVVGGASFVAGEAYNTDGNGHGTHVAGTVAALDNTTGVLGVAPSVSLYAVKVLNSSGSGSYSGIVSGIEWATTNGMDVINMSLGGASGSTAMKQAVDNAYAKGVVVVAAAGNSGSSGNTNTIGYPAKYDSVIAVGAVDSNSNRASFSSVGAELEVMAPGAGVYSTYPTNTYATLNGTSMASPHVAGAAALILSKHPNLSASQVRNRLSSTATYLGSSFYYGKGLINVEAAAQ
# What was measured:
# [1] = molecular target: T1, N-succinyl-Ala-Ala-Phe-7-amino-4-methyl …
# [2] = molecular target: T2, N-succinyl-Ala-Ala-Pro-Leu-p-nitroanilid …
# [3] = molecular target: T3, N-succinyl-Ala-Ala-Pro-Phe-p-nitroanilid …
# [4] = molecular target: T4, N-succinyl-Leu-Leu-Val-Tyr-7-amino-4-met …
# [5] = molecular target: T5, N-succinyl-Leu-Tyr-7-amino-4-methyl …
# [6] = molecular target: T6, N-succinyl-Phe-Leu-Phe thiobenzyl ester
# [7] = substrate: CCCC(=O)Oc1ccc([N+](=O)[O-])cc1; assay: Assay with synthetic peptide, pNA, AMC, NNap and ester substrates (kinetic parameters); format: biochemical, Nesterenkonia sp. AL; conditions: other: substrate marked b (footnote not given), 50 mM Tris-HCl buffer, pH 9
# [8] = Differential scanning calorimetry; format: physicochemical
# Protocol: The influence of different parameters including pH, calcium ions, EDTA, and detergent on thermal stability of the AL protease was investigated by differential scanning calorimetry (DSC). Comparative studies were also performed with Subtilisin Carlsberg. Thermal scans of AL protease (0.3 mg protein/ml) and subtilisin (2.5 mg protein/ml in the presence of 1 mM phenyl-methanesulfonyl fluoride (PMSF); Sigma) were performed by increasing temperature from 25° C. to 95° C. at a scan rate of 1° C. per min on a VP-DSC (MicroCal, Northampton, Mass.). The thermograms were corrected by subtracting the base line, obtained from a blank scan of the no-enzyme solution, and normalized for protein concentration. The unfolding transition of the AL protease was fitted to a two-state model. The Tm (temperature at which heat capacity change is a maximum), the calorimetric (or true) enthalpy ΔHcal (peak area), and van't Hoff (or apparent) enthalpy AHVH (calculated from the shape of thermogram) were calculated using the Origin software provided by MicroCal.
# [9] = Circular dichroism spectroscopy; format: physicochemical
# Protocol: The conformational stability of the AL protease was examined by circular dichroism (CD) spectroscopy and compared with that of Subtilisin Carlsberg (bacterial protease, type VIII; Sigma Chemical Co., St. Louis, USA). The CD spectra of the proteins were obtained on a Jasco spectropolarimeter model J-720, at 25° C. in the far UV range from 195 to 250 nm at a scan rate of 10 nm/min using a sample cell path length of 0.1 cm. The ellipticity values (θ) for every nm wavelength increase were obtained in mdeg directly from the instrument and were recorded online in a computer. An average of 6 scans was calculated and the corresponding no-enzyme spectra were subtracted for each sample.
# [10] = Autolytic degradation by SDS-PAGE; format: physicochemical; conditions: incubation at 50° C. up to 24 h; not shown
# Protocol: Autolytic degradation of the protease was investigated by SDS-PAGE. The AL protease and Subtilisin Carlsberg were individually incubated in 10 mM Tris-HCl buffer 8 for 24 h at 50° C. Electrophoresis of the enzyme samples taken at different time intervals was performed according to the method of Laemmli, on 12% polyacrylamide gel using a Mini Protean II equipment (Bio-Rad, Richmond, Calif.).
# [11] = 0.1% (w/v) SDS vs untreated, pH 10.0
# [12] = untreated, 10 mM glycine-NaOH buffer, pH 10.0 (subtilisin with 1 mM PMSF)
# [13] = untreated, 10 mM glycine-NaOH buffer, pH 10.0 (subtilisin with 1 mM PMSF), listed as Subtilisin
molecule,measurement,setting,value
B1,specific activity toward synthetic substrate,[1],only able of hydrolysing those substrates at a very low rate when high substrate concentration (10 mM) was used; between 0.002 to 0.008 U/mg
same,Km,[2],9300 µM
same,kcat,[2],6650 s⁻¹
same,kcat/Km,[2],715000 M⁻¹ s⁻¹
same,Km,[3],2970 µM
same,kcat,[3],4390 s⁻¹
same,kcat/Km,[3],1.48e+06 M⁻¹ s⁻¹
same,Km,[4],15 µM
same,kcat,[4],51.7 s⁻¹
same,kcat/Km,[4],3.45e+06 M⁻¹ s⁻¹
same,specific activity toward synthetic substrate,[5],only able of hydrolysing those substrates at a very low rate when high substrate concentration (10 mM) was used; between 0.002 to 0.008 U/mg
same,specific activity toward synthetic substrate,[6],only able of hydrolysing those substrates at a very low rate when high substrate concentration (10 mM) was used; between 0.002 to 0.008 U/mg
same,Km,[7],1050 µM
same,kcat,[7],63.7 s⁻¹
same,kcat/Km,[7],60800 M⁻¹ s⁻¹
B2,Tm on addition of Ca^2+,"[8]; 1 mM PMSF present, pH 10.0",remained unchanged
same,Lowering of Tm,"[8]; 10 mM EDTA, 1 mM PMSF present",10 °C
same,ΔHcal,"[8]; 10 mM EDTA, 1 mM PMSF present",152 kcal/mol
same,Decrease in Tm,[8]; [11],13 °C
same,Decrease in ΔHcal,[8]; [11],59 kcal/mol
same,Further lowering in Tm,"[8]; 0.2% SDS vs 0.1% SDS, pH 10.0",3 °C
same,Further lowering in ΔHcal,"[8]; 0.2% SDS vs 0.1% SDS, pH 10.0",41 kcal/mol
same,Tm,"[8]; +0.1% SDS, pH 10.0",54.5 ± 0.02 °C
same,ΔHcal,"[8]; +0.1% SDS, pH 10.0",144 ± 0.5 kcal/mol
same,Tm,"[8]; +0.2% SDS, pH 10.0",51.1 ± 0.01 °C
same,ΔHcal,"[8]; +0.2% SDS, pH 10.0",103 ± 0.2 kcal/mol
same,Tm,[8]; [12],67.3 °C
same,ΔHcal,[8]; [12],203 kcal/mol
same,Tm,[8]; [13],67.3 ± 0.02 °C
same,ΔHcal,[8]; [13],203 ± 0.9 kcal/mol
same,Secondary structure in the presence of SDS,"[9]; 0.1-1% (w/v) SDS, data not shown",complete loss of secondary structure
same,Secondary structure after incubation,"[9]; 24 h at 50° C., 10 mM glycine-NaOH buffer, pH 10.0",substantial loss of structure
same,Degradation on gel electrophoresis,[10],considerable degradation
